B1: Mag 10 nt G4A (ssRNA)
RNA: AGGUAAGUUC
B2: Mag 15 nt A7A8 (A8A9 in Table 1) (structured_RNA)
RNA: GGAGGUAGGUAACGG
B3: Mag 15 nt U7U8 (U8U9 in Table 1) (structured_RNA)
RNA: GGAGGUAGGUUUCGG
B4: Mag 15 nt G7G8 (G8G9 in Table 1) (structured_RNA)
RNA: GGAGGUAGGUGGCGG
B5: Mag 10 nt wt (-2 to 8) (ssRNA)
RNA: AGGUAGGUUC
B6: Mag exon 12 5'ss rat wt 29 nt (-12 to 17) (structured_RNA)
RNA: GAGCCCCAGGAGGUAGGUUCCGGGGGCCU

Columns and labels:
MBP-hnRNP A1 [1] = biological target: T1, MBP-hnRNP A1 (mouse, UniProt P49312 1-320); experiment: EMSA
T1 sequence (P49312 whole entry): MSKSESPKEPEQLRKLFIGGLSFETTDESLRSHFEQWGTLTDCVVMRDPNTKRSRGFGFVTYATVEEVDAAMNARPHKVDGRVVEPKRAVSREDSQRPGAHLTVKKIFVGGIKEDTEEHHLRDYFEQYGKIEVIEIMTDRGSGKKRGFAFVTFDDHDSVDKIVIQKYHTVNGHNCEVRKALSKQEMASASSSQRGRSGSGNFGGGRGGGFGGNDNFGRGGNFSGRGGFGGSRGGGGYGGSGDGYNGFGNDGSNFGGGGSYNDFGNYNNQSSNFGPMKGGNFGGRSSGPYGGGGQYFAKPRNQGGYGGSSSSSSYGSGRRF

MBP-hnRNP A1 [2] = biological target: T1, MBP-hnRNP A1; experiment: fluorescence polarization
MBP-hnRNP A1 [3] = biological target: T1, MBP-hnRNP A1; experiment: FP/EMSA

Row | Binder | binding result (MBP-hnRNP A1 [1]) | Kd (MBP-hnRNP A1 [1]) [nM] | Kd (MBP-hnRNP A1 [2]) [nM] | binding result (MBP-hnRNP A1 [3])
1 | B1 | no binding |  |  | 
2 | B2 |  | 106 ± 23 | 21 ± 4 | 
3 | B3 |  | 171 ± 48 | 92 ± 37 | 
4 | B4 |  | 70 ± 21 | 60 ± 18 | 
5 | B5 |  | 145 ± 12 |  | 
6 | B6 |  |  |  | no binding

Reference: paper PMC3683929
